From paper doi:10.1101/2020.01.19.911149 (bioRxiv, 2020)

B1: BsHfq-GFP (natural protein, Bacillus subtilis, UniProt O31796 1-73, looked up)
chain: MKPINIQDQFLNQIRKENTYVTVFLLNGFQLRGQVKGFDNFTVLLESEGKQQLIYKHAISTFAPQKNVQLELE
B2: SmF-GFP (natural protein, S. cerevisiae, UniProt P54999 1-86, looked up)
chain: MSESSDISAMQPVNPKPFLKGLVNHRVGVKLKFNSTEYRGTLVSTDNYFNLQLNEAEEFVAGVSHGTLGEIFIRCNNVLYIRELPN

Target: the molecule itself
Assay: SEC-MALS

Row | Protein | stoichiometry N
1 | B1 | 6
2 | B2 | 14
